Laboratory results taken from article PMC9525683, “Structural analysis of human CEACAM1 oligomerization” (Communications Biology, 2022).

Target: the molecule itself
Assay: crystal structure; tagless hCEACAM1 IgV at 15 mg/ml; sitting drop, 25 °C; 0.2 M ammonium sulfate, 0.1 M HEPES pH 7.5, 25% w/v PEG 3350; space group C121; 2.2 Å; three molecules in the asymmetric unit

B1: human CEACAM1 IgV domain, wild type (tagless) (domain or fragment)
chain: QLTTESMPFNVAEGKEVLLLVHNLPQQLFGYSWYKGERVDGNRQIVGYAIGTQQATPGPANSGRETIYPNASLLIQNVTQNDTGFYTLQVIKSDLVNEEATGQFHVY
notes: carcinoembryonic antigen-related cell adhesion molecule 1 (CEACAM1), human, N-terminal IgV domain, non-glycosylated; The 15N-labelled form (M9 medium) was used for NMR, the unlabelled form for the crystals and UV spectroscopy; also called hCEACAM1 IgV; hCEACAM1 WT
binding result: binds
